Test results reported in patent US20080153773A1, “MODULATORS OF PHOSPHOTYROSYL PHOSPHATASE ACTIVATOR” (priority 2006, published 2008).
Numbering of substitutions follows the chain as printed. Names and notes keep the numbering of the source.

T1: PTPA-PP2A A-C dimer complex (Homo sapiens, UniProt Q15257)
T1 construct: His6 (C); GST (N); His8 (N); made in house; host or cells: PTPA: E. coli BL21(DE3), pET21b; PP2A C: baculovirus / insect cells
T1 sequence (Q15257 1-323 isoform Q15257-2): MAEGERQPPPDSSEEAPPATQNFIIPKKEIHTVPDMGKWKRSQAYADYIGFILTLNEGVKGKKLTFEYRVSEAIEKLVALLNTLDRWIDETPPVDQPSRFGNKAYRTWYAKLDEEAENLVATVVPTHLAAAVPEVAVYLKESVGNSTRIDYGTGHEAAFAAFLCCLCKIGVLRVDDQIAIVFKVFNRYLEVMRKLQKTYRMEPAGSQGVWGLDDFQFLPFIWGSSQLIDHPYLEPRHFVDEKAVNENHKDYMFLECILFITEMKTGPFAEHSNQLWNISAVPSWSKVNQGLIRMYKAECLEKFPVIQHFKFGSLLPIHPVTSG

B1: phosphotyrosyl phosphatase activator (protein, UniProt Q15257 2-358, looked up)
Serine/threonine-protein …: AEGERQPPPDSSEEAPPATQNFIIPKKEIHTVPDMGKWKRSQAYADYIGFILTLNEGVKGKKLTFEYRVSEMWNEVHEEKEQAAKQSVSCDECIPLPRAGHCAPSEAIEKLVALLNTLDRWIDETPPVDQPSRFGNKAYRTWYAKLDEEAENLVATVVPTHLAAAVPEVAVYLKESVGNSTRIDYGTGHEAAFAAFLCCLCKIGVLRVDDQIAIVFKVFNRYLEVMRKLQKTYRMEPAGSQGVWGLDDFQFLPFIWGSSQLIDHPYLEPRHFVDEKAVNENHKDYMFLECILFITEMKTGPFAEHSNQLWNISAVPSWSKVNQGLIRMYKAECLEKFPVIQHFKFGSLLPIHPVTSG
modifications: His6 tag
B2: V209D: missense mutant of human PTPA (protein, UniProt Q15257 2-358, looked up, variant V209D)
Serine/threonine-protein …: B1 Serine/threonine-protein … with V208D
B3: G205D: missense mutant of human PTPA (protein, UniProt Q15257 2-358, looked up, variant G205D)
Serine/threonine-protein …: B1 Serine/threonine-protein … with G204D

Columns and labels:
[1] = target: T2, PP2A A-C dimer (Homo sapiens, UniProt P67775); assay: pNPPase activity assay; assay type: biochemical; conditions: for stimulation of pNPPase activity of PP2A by PTPA or PTPA mutant: FIG. 6B/6C
T2 construct: GST (N); His8 (N); made in house; C subunit: baculovirus / insect cells; dimer assembled in vitro
Experimental: (§1) The phosphatase activity using pNPP as substrate was performed on a 96-well plate. Briefly, 50 μl of 50 mM pNPP dissolved in 50 mM Tris-HCl (pH 8.2) buffer containing 1 mM DTT, 10 mM MgCl2 and 0.1 mg/ml BSA was added to each well. The reaction was initiated by addition of 10 μl of PP2A samples in the presence or absence of ATP and PTPA. The plate was incubated at 37° C. for 5-20 minutes and the enzymatic reaction product was measured by the absorbance at 405 nm using a plate reader.

[2] = target: T2, PP2A A-C dimer; assay: Phosphorylase a phosphatase assay (pSer activity); assay type: biochemical
Experimental: (§2) To measure the phosphatase activity of PP2A, 5 μl of each PP2A sample was added to 45 μl of 0.5 mg/ml of radio-labeled ^32P-phosphorylase b dissolved in 50 mM MOPS buffer containing 1 mM DTT and 5 mM caffeine. Reactions were performed at 37° C. for 10 minutes, and stopped by addition of 10% TCA and 0.5 mg/ml BSA. Samples were kept on ice for 10 minutes to allow complete precipitation of proteins, and were centrifuged for 10 minutes at 14K rpm. Supernatants containing the released ^32P were added to 3 ml Ecosint and the intensity was measured by scintillation counter.

[3] = tested on: PTPA-PP2A A-C dimer complex; assay: ATPase activity assay (Malachite Green); assay type: biochemical, human; conditions: for ATPase activity: with equi-molar amount of PP2A A-C dimer
Experimental: (§3) Protein samples were prepared in 100 mM NaCl, 20 mM HEPES, pH 7.5, and 2 mM dithiothreitol. The release of free phosphate group was measured by the calorimetric Malachite Green Reagent (BioAssay Systems, Hayward, Calif.) using NaH2PO4 as phosphate standard. The protein concentration was determined by a combination of OD absorption at 280 nm and Bio-Rad Protein Assay (Bio-Rad).

[4] = target: T2, PP2A A-C dimer; assay: Phosphotyrosine phosphatase assay using a fluorogenic peptide as the substrate; assay type: biochemical; conditions: equi-molar PTPA and PP2A, with ATP/Mg2+, FIG. 6G
Experimental: A protein tyrosine phosphatase assay kit (EMD Biosciences) was used to measure phosphotyrosine phosphatase activity. 50 nM PP2A and PTPA, or PTPA mutants were added to a fluorogenic phosphopeptide substrate (MCA-Gly-Asp-Ala-Glu-pTyr-Ala-Ala-Lys(DNP)-Arg-NH2, 1 μM) and incubated at room temperature under very low light conditions. After 10 minutes of incubation, sodium vanadate solution was added to stop the reaction. […] The fluorescent intensity was monitored at 328 nm (excitation) and 395 nm (emission), using a Hitachi F2500 fluorescence spectrophotometer.

[5] = target: T2, PP2A A-C dimer; assay: Native polyacrylamide gel electrophoresis (native PAGE) binding; conditions: quantification of native-PAGE, FIG. 4C; read-out: dissociation constant between PP2A A-C dimer and PTPA
Experimental: All assays were performed at 4° C. to offset heat generated by electrophoresis. 6% poly-acrylamide (37.5:1 acrylamide:bis-acrylamide) gels were used under the buffer condition of 65 mM Tris, pH 8.5, and 65 mM boric acid. All protein samples were prepared in a 40 μl volume containing 25 mM Tris, pH 8.0, 150 mM NaCl, 2 mM DTT, and 5% glycerol. After pre-running the gels for 15 minutes, half of each sample (20 μl) was loaded into each lane and was subjected to electrophoresis with constant electric field of 15 volts/cm. The gels were stained using coomassie blue, destained, and dried for photography. The gels were scanned by a densitometer, which allowed the estimate of the binding affinity between WT PTPA and PP2A A-C dimer.

[6] = target: T2, PP2A A-C dimer; assay: GST-mediated pull-down assay; assay type: binding; conditions: FIG. 4A; mutants compared with WT PTPA
Experimental: Approximately 30 μg of stoichiometric PP2A A-C dimer were bound to 30 μl of glutathione resin via GST-A protein. The resin was washed with 200 μl assay buffer 3 times to remove excess unbound PP2A. Then 10 μg of WT or mutant PTPA were allowed to bind the resin in a 125-μl volume. After washing 4 times with an assay buffer containing 25 mM Tris, pH 8.0, 150 mM NaCl, and 2 mM dithiothreitol (DTT), the remaining protein and resin were mixed with 15-μl SDS sample buffer and applied to SDS-PAGE. The results were visualized by SDS-polyacrylamide gel electrophoresis (SDS-PAGE) with coomassie staining.

[7] = target: T2, PP2A A-C dimer; assay: Substrate preference of PP2A (phosphorylase b versus pNPP); assay type: biochemical; conditions: for shift of substrate preference of PP2A from phosphorylase b to pNPP: PTPA mutants, FIG. 6F
Experimental: as §1, §2

[8] = target: T1, PTPA-PP2A A-C dimer complex; assay: ATPase activity assay (Malachite Green); assay type: biochemical; conditions: PTPA alone, without PP2A; 1 mM ATP and 5 mM Mg2+
Experimental: as §3

T2 sequence (P30153 whole entry partner): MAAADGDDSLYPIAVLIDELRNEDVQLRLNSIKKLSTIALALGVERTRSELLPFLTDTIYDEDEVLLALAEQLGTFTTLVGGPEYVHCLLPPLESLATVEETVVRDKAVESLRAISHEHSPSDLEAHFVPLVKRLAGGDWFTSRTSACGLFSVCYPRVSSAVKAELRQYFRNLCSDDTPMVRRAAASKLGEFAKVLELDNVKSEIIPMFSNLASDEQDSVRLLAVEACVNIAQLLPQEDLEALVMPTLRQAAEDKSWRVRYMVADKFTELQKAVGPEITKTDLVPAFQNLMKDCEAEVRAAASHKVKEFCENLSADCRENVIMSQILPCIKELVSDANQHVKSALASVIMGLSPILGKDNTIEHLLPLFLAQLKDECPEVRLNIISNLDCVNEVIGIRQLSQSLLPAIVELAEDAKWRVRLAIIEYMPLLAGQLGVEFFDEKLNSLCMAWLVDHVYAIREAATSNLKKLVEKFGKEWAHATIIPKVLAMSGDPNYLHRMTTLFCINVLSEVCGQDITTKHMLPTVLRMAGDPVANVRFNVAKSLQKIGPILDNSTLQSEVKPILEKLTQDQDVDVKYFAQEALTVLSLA
T2 sequence (P67775 whole entry): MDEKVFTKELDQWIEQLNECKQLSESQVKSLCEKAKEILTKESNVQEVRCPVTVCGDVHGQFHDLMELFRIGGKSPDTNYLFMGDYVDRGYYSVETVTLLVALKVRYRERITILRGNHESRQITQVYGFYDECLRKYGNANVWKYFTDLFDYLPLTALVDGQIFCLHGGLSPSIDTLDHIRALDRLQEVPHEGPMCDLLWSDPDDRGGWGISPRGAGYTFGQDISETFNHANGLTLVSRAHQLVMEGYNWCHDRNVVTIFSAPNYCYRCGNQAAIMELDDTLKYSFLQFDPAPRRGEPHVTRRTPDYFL

| Molecule | stimulation of pTyr phosphatase activity of PP2A (peptide substrate) [4] | interaction with PP2A A-C dimer in GST-mediated pull-down [6] | ATPase activity ([3]; 1 mM ATP and 5 mM Mg2+) | stimulation of pNPPase activity of PP2A by PTPA or PTPA mutant ([1]; with ATP/Mg2+) | shift of substrate preference of PP2A from phosphorylase b to pNPP [7] | further results |
| --- | --- | --- | --- | --- | --- | --- |
| Nc1ncnc2c1ncn2[C@@H]1O[C@H](COP(=O)(O)OP(=O)(O)OP(O)(O)=S)[C@@H](O)[C@H]1O [ATPγS, reference compound] |  |  |  |  |  | stimulation of pNPPase activity of PP2A by ATP analog ([1]; provided to PP2A alone or in the presence of PTPA, FIG. 6B): fails to stimulate |
| ATP [ATP/Mg^2+, reference compound] |  |  |  |  |  | effect of ATP/Mg2+ on PP2A pSer activity ([2]; with PTPA or mutants, FIG. 6D): did not effect |
| C=C1[C@@H](O)[C@@H]2O[C@]3(CC[C@H](/C=C/[C@@H](C)[C@@H]4CC(C)=C[C@@]5(O[C@H](C[C@@](C)(O)C(=O)O)CC[C@H]5O)O4)O3)CC[C@H]2O[C@@H]1[C@@H](O)C[C@H](C)[C@H]1O[C@@]2(CCCCO2)CC[C@H]1C [okadaic acid, reference compound] |  |  |  |  |  | inhibition of PTPA/PP2A ATPase activity ([3]; FIG. 5A): inhibited |
| B1 | enhanced phosphotyrosine phosphatase activity | formed a stable complex | significant ATPase activity | greatly enhanced |  | Kd [5]: ~1000 nM; shift of substrate preference of PP2A A-C dimer from phosphorylase b to pNPP ([7]; stoichiometric ratio of 1:1, FIG. 6F): about 10 fold; PP2A pSer/pThr activity relative to PP2A alone ([2]; about 20-to-1 molar ratio of PTPA to PP2A (maximal reduction), FIG. 6E): approximately 25%; reduction of PP2A pSer activity ([2]; equi-molar amount of WT PTPA, FIG. 6D): approximately 45%; effect on pSer activity of PP2A in titration ([2]; titrated against a fixed amount of PP2A A-C dimer, FIG. 6E): inhibited the pSer activity of PP2A in a concentration-dependent manor; ATPase activity [8]: did not exhibit any detectable ATPase activity; catalytic turnover rate of ATPase activity ([3]; PTPA with equi-molar PP2A A-C dimer, 1 mM ATP and 5 mM Mg2+): approximately 2 per minute; Km ([3]; equi-molar amount of PP2A and PTPA, FIG. 5B): ~400 µM; pNPPase activity of PTPA-stimulated PP2A relative to PP2A in the absence of PTPA ([1]; equi-molar concentrations, with ATP/Mg2+): approximately 6 fold |
| B2 | did not stimulate | significantly compromised binding | significantly lower or undetectable ATPase activity |  | not observed |  |
| B3 | did not stimulate | did not have a significant effect | significantly lower or undetectable ATPase activity | do not stimulate | not observed |  |
